Experimental data taken from US20230364000A1, “COMPOSITIONS COMPRISING COMBINATIONS OF COLLAGEN OR ELASTIN POLYPEPTIDES WITH ACTIVE INGREDIENTS AND METHODS OF USING SAME” (Geltor, Inc., priority 2020, published 2023).

Legend:
[1] = tested on: Human full-thickness skin equivalents (MatTek Epiderm FT co-culture tissue models); assay: Fibronectin production in human full-thickness skin equivalents (ELISA); type: cell-based; details: polypeptide 0.1% w/w, FIG. 19
fibroblasts = assay: RNA sequencing of extracellular matrix gene expression in fibroblasts; type: cell-based, human; details: 0.03%, 48 hours
Protocol: RNA sequencing was performed to analyze global gene expression. After 48 hours of exposure, fibroblasts were incubated with 0.03% of a polypeptide according to SEQ ID NO: 16. These fibroblasts expressed higher levels of several extracellular matrix genes than cells incubated in media alone. […] This response was similar to fibroblasts treated with Vitamin C (FIG. 2A; “D”).

[2] = tested on: Human full-thickness skin equivalents (MatTek Epiderm FT co-culture tissue models); assay: Type III collagen production in human full-thickness skin equivalents (pro-collagen type III N-peptide ELISA); type: cell-based; details: polypeptide 0.1% w/w, ascorbic acid 2% w/w, FIG. 21
facial skin [3] = assay: Corneometer skin hydration, clinical study of Example 3; type: in vivo, human; design: key to Corneometer Mean Percent Improvement From BL mean: NI = No Improvement; details: 0.1% w/w topical formulation; for Corneometer Mean ± SD: n 14, baseline 42.45 ± 10.06
Protocol: (§1) A clinical study using human subjects to determine the effects of a topical skincare product containing truncated human type 21 collagen (SEQ ID NO: 16) is performed. The research is performed according to U.S. and International standards of Good Clinical Practice (FDA and ICH guidelines) and applicable government regulations.
(§2) A base formulation (control formulation) made of water, olive oil glycereth-8 esters, glycerin, coconut alkanes, hydroxyethyl acrylate/sodium acryloyldimethyl taurate copolymer, pentylene glycol, disodium EDTA, caprylyl glycol, chlorphenesin, phenoxyethanol is prepared. A formulation containing the truncated human type 21 collagen is prepared by adding sufficient collagen to prepare a topical formulation containing 0.1% w/w collagen.
The corneometer CM 820 (Courage+Khazaka, Germany) measures the relative degree of hydration of the skin surface by applying an alternating current to the skin with a closely spaced pair of electrodes and measuring the capacitance. Changes in water content of the skin change the conductance of the capacitive circuit.
The corneometer is able to detect slight changes in the hydration level reproducibly with a measurement time of only about one second. The measurement depth is small (approximately 10-20 μm of stratum corneum) which ensures assessment is not influenced by deeper skin layers.
All subjects undergo corneometer measurements of their face at baseline, immediately post-initial-application, and at weeks 2, 4, and 8. Measurements will be taken in triplicate and averaged for each time point. Measurement location is recorded on a face map for assessment consistency at each time point.
Improvements in skin hydration, firmness, and elasticity were statistically significant.

facial skin [4] = assay: Expert clinical grader evaluation of facial skin (10 cm VAS; five-point ordinal scale for erythema), clinical study of Example 3; type: in vivo, human; details: 0.1% w/w topical formulation, Week 2
Protocol: as §1, §2
Visual Analog Scales (VAS) are commonly used in clinical research to measure intensity or frequency of various symptoms, subjective characteristics or attitudes that cannot be directly measured. VAS are a reliable scale and more sensitive to small changes than simple ordinal scales. (A. Paul-Dauphin, F. Guillemin, J. Virion and S. Briancon, “Bias and precision in visual analog scales: A randomized controlled trial,” American Journal of Epidemiology, vol. 150, no. 10, pp. 1117-27, 1999). When responding to a VAS item, the expert grader specifies their level of agreement to a statement by indicating a position along a line (10 cm) between two end-points or anchor responses. Simple VAS is used to evaluate efficacy parameters in which the ends of a 10 cm horizontal line is defined as extreme limits orientated from the left (best) to the right (worst). Signs of photo-aging can be classified as follows: Mild=1-3.9 cm, Moderate=4-6.9 cm, Severe=7-10 cm.
Ordinal scales allow a number to be directly and objectively attached to the quality of a given attribute. When responding to an ordinal scale item, the expert grader specifies their level of agreement to a statement by choosing a set grade, or level.
The appearance of each subject's facial skin redness (erythema) is assessed by an expert grader using the following five-point ordinal scale for qualification at Baseline (Table 6). If qualified, each subject will undergo further erythema assessments at week 2, week 4, week 6 and week 8.
Fourteen female subjects are enrolled. The inclusion criteria are Caucasian female subjects with Fitzpatrick skin type III in good general health, and between ages of 35 and 65 years old, inclusive at enrollment. Inclusion criteria also include signs of aging on face as determined by an expert grader at a baseline of: a) Score of >2 cm<6 on 10 cm scale for lines/wrinkles; and b) Score of >1<3 on 5-point ordinal scale for facial redness (erythema). Table 7 discloses the demographics of the study participants.
The results of the expert clinical grader evaluation on lines/wrinkles, firmness (visual), elasticity (tactile), brightness, texture/softness (tactile), texture/smoothness (visual) and erythema after two weeks treatment are shown in Table 8. All of the tested characteristics were improved. The scores for brightness, texture/softness (tactile), texture/smoothness (visual) and erythema improved with statistical significance.

B1: SEQ ID NO: 16: truncated human collagen type 21 alpha 1 without the DsbA secretion tag, recombinantly expressed in E. coli (protein)
chain: AGFPGLPGPAGEPGRHGKDGLMGSPGFKGEAGSPGAPGQDGTRGEPGIPGFPGNRGLMGQKGEIGPPGQQGKKGAPGMPGLMGSNGSPGQPGTPGSKGSKGEPGIQGMPGASGLKGEPGATGSPGEPGYMGLPGIQGKKGDKGNQGEKGIQGQKGENGRQGIPGQQGIQGHHGAKGERGEKGEPGVR
With B1 the “increase of fibronectin production relative to untreated control” value ([1]; day 4 supernatant, hyaluronic acid 0.1% w/w (low molecular weight, 15-40 kDa)) was 67%, the “production of fibronectin as compared to untreated cells” value ([1]; each agent alone, day 4, retinol (10, unit not given), ascorbic acid 2% w/w, hyaluronic acid 0.1% w/w) was “increased production” and the “elastin gene (ELN) expression” value (fibroblasts; relative to untreated cells and various marine collagens, FIG. 2B) was “upregulated”. The “collagen type I gene (COL1A) expression” value (fibroblasts; relative to untreated cells or retinol, similar to Vitamin C, FIG. 2A) was “upregulated”, the “fibronectin gene (FN1) expression” value (fibroblasts; relative to untreated cells, retinol and Vitamin C, FIG. 2C) was “upregulated” and the “increase of type III collagen production relative to untreated control” value ([2]; day 2 supernatant) was 82%. For the same molecule, the “production of type III collagen as compared to untreated cells” value ([2]; each agent alone, day 2, retinol (10, unit not given), hyaluronic acid 0.1% w/w) was “increased production”, the “Corneometer Mean Percent Improvement From BL mean” value (facial skin [3]; Immediate) was 36.69% and the “Corneometer Percent of Subjects Showing Improvement From BL” value (facial skin [3]; Immediate) was 100%. The “Corneometer Mean ± SD” value (facial skin [3]; Immediate, P-value <0.001*) was 57.22 ± 12.47, the “Corneometer Mean Percent Improvement From BL mean” value (facial skin [3]; Week 2) was “NI” and the “Corneometer Percent of Subjects Showing Improvement From BL” value (facial skin [3]; Week 2) was 14.3%. For the same molecule, the “Corneometer Mean ± SD” value (facial skin [3]; Week 2, P-value 0.001** (significant worsening)) was 35.71 ± 10.77, the “Brightness Mean Percent Improvement From BL mean” value (facial skin [4]) was 2.57% and the “Brightness Percent of Subjects Showing Improvement From BL” value (facial skin [4]) was 78.6%. The “Elasticity (Tactile) Mean Percent Improvement From BL mean” value (facial skin [4]) was 0.25%, the “Elasticity (Tactile) Percent of Subjects Showing Improvement From BL” value (facial skin [4]) was 35.7% and the “Erythema Mean Percent Improvement From BL mean” value (facial skin [4]) was 23.81%. For the same molecule, the “Erythema Percent of Subjects Showing Improvement From BL” value (facial skin [4]) was 35.7%, the “Firmness (Visual) Mean Percent Improvement From BL mean” value (facial skin [4]) was 1.08% and the “Firmness (Visual) Percent of Subjects Showing Improvement From BL” value (facial skin [4]) was 64.3%. The “Lines/Wrinkles (Global) Mean Percent Improvement From BL mean” value (facial skin [4]) was 0.92%, the “Lines/Wrinkles (Global) Percent of Subjects Showing Improvement From BL” value (facial skin [4]) was 57.1% and the “Texture/Smoothness (Visual) Mean Percent Improvement From BL mean” value (facial skin [4]) was 3.63%. For the same molecule, the “Texture/Smoothness (Visual) Percent of Subjects Showing Improvement From BL” value (facial skin [4]) was 64.3%, the “Texture/Softness (Tactile) Mean Percent Improvement From BL mean” value (facial skin [4]) was 6.43% and the “Texture/Softness (Tactile) Percent of Subjects Showing Improvement From BL” value (facial skin [4]) was 71.4%. For the same molecule, the “Texture/Softness (Tactile) Mean ± SD” value (facial skin [4]; n 14, baseline 4.82 ± 0.82, P-value 0.008*) was 4.51 ± 0.89, the “Elasticity (Tactile) Mean ± SD” value (facial skin [4]; n 14, baseline 4.91 ± 0.53, P-value 0.547) was 4.90 ± 0.52 and the “Firmness (Visual) Mean ± SD” value (facial skin [4]; n 14, baseline 5.07 ± 0.77, P-value 0.120) was 5.01 ± 0.75. For the same molecule, the “Lines/Wrinkles (Global) Mean ± SD” value (facial skin [4]; n 14, baseline 5.22 ± 0.75, P-value 0.336) was 5.17 ± 0.75, the “Texture/Smoothness (Visual) Mean ± SD” value (facial skin [4]; n 14, baseline 5.46 ± 0.70, P-value 0.009*) was 5.25 ± 0.68 and the “Brightness Mean ± SD” value (facial skin [4]; n 14, baseline 5.51 ± 0.54, P-value 0.010*) was 5.37 ± 0.62. For the same molecule, the “Erythema Mean ± SD” value (facial skin [4]; five-point ordinal scale, n 14, baseline 1.60 ± 0.73, P-value 0.021*) was 1.21 ± 0.80.
